We go through two molecules from US10456465B2, “Compositions, kits, and methods for the diagnosis prognosis, monitoring, treatment and modulation of post-transplant lymphoproliferative disorders and hypoxia associated angiogenesis disorders using galectin-1” (Dana-Farber Cancer Institute, Inc., priority 2009, dated 2019).

One assay concerns HUVEC. The assay can be described thus: HUVEC invasion (BioCoat Angiogenesis system). In kind it is cell-based, human. The note with it: HUVEC treated with Gal1. On the procedure:
HUVEC transfected or not with specific siRNA or pre-incubated with signaling pathway inhibitors were exposed to VEGF or Gal1 with or without lactose, sucrose, 8F4F8G7 mAb or control isotype (IgG1κ) or specific antibodies for VEGFR1 (AP-MAB0702; Abcam), VEGFR2 (AF357; R&D), VEGFR3 (AB89501; Abcam) or VEGF (MAB293; R&D). Cells were processed for proliferation, migration, invasion and tube formation assays. Tumor-associated blood vessels were identified by flow cytometry using Alexa Fluor 647-conjugated anti-CD34 antibody (RAM34; eBioscience).
Invasion assays were performed using the BioCoat Angiogenesis system (BD Biosciences) following manufacturer's recommendations. For assessment of in vivo angiogenesis, growth factor-reduced Matrigel (BD Biosciences) was mixed with Gal1 (0.1 or 3 μM) with or without lactose (30 mM). In another set of experiments, serum-free CM from KS cells infected or not with a retroviral vector expressing Gal1 shRNA and cultured under hypoxic or normoxic conditions, were added to unpolymerized Matrigel and injected subcutaneously into the flanks of either wild-type or Lgals1^−/− (B6) mice or nude mice using a cold syringe. Matrigel embedded with buffer alone was used as negative control and a cocktail containing VEGF (50 ng/ml), heparin (50 U/ml) and TNF (2 ng/ml) was used as positive control. […]

A further assay has as its system mice (Matrigel plugs). In words: In vivo vascularization of Matrigel sponges. Further details: species or system mouse. As to conditions: Gal1 0.1 or 3 μM; 6 days; hemoglobin content. On the procedure:
Invasion assays were performed using the BioCoat Angiogenesis system (BD Biosciences) following manufacturer's recommendations. For assessment of in vivo angiogenesis, growth factor-reduced Matrigel (BD Biosciences) was mixed with Gal1 (0.1 or 3 μM) with or without lactose (30 mM). In another set of experiments, serum-free CM from KS cells infected or not with a retroviral vector expressing Gal1 shRNA and cultured under hypoxic or normoxic conditions, were added to unpolymerized Matrigel and injected subcutaneously into the flanks of either wild-type or Lgals1^−/− (B6) mice or nude mice using a cold syringe. Matrigel embedded with buffer alone was used as negative control and a cocktail containing VEGF (50 ng/ml), heparin (50 U/ml) and TNF (2 ng/ml) was used as positive control. After 6 days, Matrigel plugs were collected by surgery, photographed and weighed. Samples were minced and diluted in water to measure hemoglobin content using the Drabkin reagent kit (Sigma). Each sample was normalized to 100 mg of recovered gel and confronted with a standard curve of mouse blood hemoglobin.

Assay [1] has as its target T1, VEGFR2 (Homo sapiens, UniProt P35968).
T1 construct: co-immunoprecipitation results followed by immunoblot analysis of HUVEC lysates; endogenous in cells; host or cells: primary HUVEC
The assay can be described thus: Co-immunoprecipitation of Gal1 with VEGFR2 in HUVEC lysates. In kind it is binding. The note with it: lysates of human ECs treated with Gal1. On the procedure: (§1) Array (Cell Signaling) following manufacturer's directions. For co-immunoprecipitation, 500 μg cell lysates were incubated with 2 μg of anti-VEGFR2 (55B11; Cell Signaling) or anti-NRP-1 (C-19; Santa Cruz Biotechnol) antibodies. The immunocomplexes were captured with protein G PLUS-Agarose (Santa Cruz Biotechnol) and processed for immunoblot analysis as described in Ilarregui et al. (2009) Nat Immunol 10, 981-991. Equal amounts of protein were resolved by SDS-PAGE, blotted onto nitrocellulose membranes (GE Healthcare) and probed with anti-IκB-α (C21), anti-Erk1/2 (C14), anti-phospho-Erk1/2 (E4) or anti-actin (I-19) (all from Santa Cruz Biotechnol) or anti-Akt (9272), anti-phospho-Akt (9271S), anti-VEGFR2 (55B11), anti-phospho-VEGFR2 (19A10) (all from Cell Signaling) or anti-HIF-1α (mgc3; ABR BioReagent) antibodies or a rabbit anti-Gal1 IgG (1.5 μg/ml) obtained as described in Ilarregui et al. (2009) Nat Immunol 10, 981-991.

Assay [2] addresses T2, recombinant human glutathione-s-transferase (GST)-Gal1 (human, UniProt P09382 1-135).
T2 construct: Immunogen and ELISA antigen; not shown: glutathione-S-transferase (GST) tag
In words: ELISA on recombinant protein. The text has this: (§2) Anti-human Gal1 mAbs were obtained by immunizing B6-Cg-Tg (BCL2)22Wehi-J mice (Jackson Labs, Bar Harbor, Me.) with recombinant human glutathione-s-transferase (GST)-Gal1, generating anti-Gal1 hybridomas with standard methods and purifying the Gal1 monoclonal antibody and class-matched IgG2bλ, control by affinity chromatography. […] A previously described anti-Gal1 polyclonal antibody (Juszczynski et al. (2007) *Proc Natl Acad Sci USA* 104:13134-9) was used as a positive control in all assays.

Another assay deals with T3, recombinant His-Gal1 (human, UniProt P09382 1-135, limits assumed).
T3 construct: not shown: His tag
The assay can be described thus: ELISA on recombinant protein.
Description: as §2
In general terms: An ELISA detects its analyte on a solid surface through an enzyme-linked reagent.

For another assay, the target named is T4, human galectin-1 (Gal1) (human, UniProt P09382 2-135).
T4 construct: Used as recombinant protein (rGal1); also called hGal1; rGal1
In words: immunoblot of L428 cell lysate. For orientation: Immunoblotting shows a protein as a band on a membrane.

In another assay the target is T5, endogenous Gal1 (Homo sapiens, UniProt P09382).
T5 construct: endogenous Gal1 from HL cell lines; endogenous in cells; host or cells: Hodgkin lymphoma cell line (L428)
The assay can be described thus: Reactivity with endogenous Gal1 from Hodgkin lymphoma cell line (immunoblot). The class given is binding. The note with it: Hodgkin lymphoma cell line (L428); immunoblots. The text has this:
Anti-human Gal1 mAbs were obtained by immunizing B6-Cg-Tg (BCL2)22Wehi-J mice (Jackson Labs, Bar Harbor, Me.) with recombinant human glutathione-s-transferase (GST)-Gal1, generating anti-Gal1 hybridomas with standard methods and purifying the Gal1 monoclonal antibody and class-matched IgG2bλ, control by affinity chromatography. […] A previously described anti-Gal1 polyclonal antibody (Juszczynski et al. (2007) Proc Natl Acad Sci USA 104:13134-9) was used as a positive control in all assays.
Expression of Gal1 protein in HL, LCL and DLBCL cell lines was determined by Western blot (WB) using the αGal1 monoclonal antibody (8F4F8G7) or the previously described polyclonal antiserum (Juszczynski et al. (2007) Proc Natl Acad Sci USA 104:13134-9). Knock-down of LMP2A was confirmed by WB using anαLMP2a antibody (Abcam, Cambridge, Mass.). Activity of the AP-1 components, cJun and JunB, in the HL cell line L428 and the LCLs RIC and NOR were interrogated by WB using αphospho(Ser63)-cJun (Cell Signaling Technology), αcJun (Cell Signaling Technology, Danvers, Mass.), αphospho(Ser259)-JunB (Santa Cruz Biotechnology, Inc. Santa Cruz, Calif.) and αJunB (Cell Signaling Technology). WBs were normalized using αβ-actin antibody (Sigma Aldrich, St. Louis, Mo.) to determine β-actin expression as a loading control.

In assay [3] the test system is VEGFR2. The assay can be described thus: Immunoblot of VEGFR2 phosphorylation in HUVEC. In kind it is cell-based, human. On the procedure:
as §1

T1 sequence (P35968 20-1356): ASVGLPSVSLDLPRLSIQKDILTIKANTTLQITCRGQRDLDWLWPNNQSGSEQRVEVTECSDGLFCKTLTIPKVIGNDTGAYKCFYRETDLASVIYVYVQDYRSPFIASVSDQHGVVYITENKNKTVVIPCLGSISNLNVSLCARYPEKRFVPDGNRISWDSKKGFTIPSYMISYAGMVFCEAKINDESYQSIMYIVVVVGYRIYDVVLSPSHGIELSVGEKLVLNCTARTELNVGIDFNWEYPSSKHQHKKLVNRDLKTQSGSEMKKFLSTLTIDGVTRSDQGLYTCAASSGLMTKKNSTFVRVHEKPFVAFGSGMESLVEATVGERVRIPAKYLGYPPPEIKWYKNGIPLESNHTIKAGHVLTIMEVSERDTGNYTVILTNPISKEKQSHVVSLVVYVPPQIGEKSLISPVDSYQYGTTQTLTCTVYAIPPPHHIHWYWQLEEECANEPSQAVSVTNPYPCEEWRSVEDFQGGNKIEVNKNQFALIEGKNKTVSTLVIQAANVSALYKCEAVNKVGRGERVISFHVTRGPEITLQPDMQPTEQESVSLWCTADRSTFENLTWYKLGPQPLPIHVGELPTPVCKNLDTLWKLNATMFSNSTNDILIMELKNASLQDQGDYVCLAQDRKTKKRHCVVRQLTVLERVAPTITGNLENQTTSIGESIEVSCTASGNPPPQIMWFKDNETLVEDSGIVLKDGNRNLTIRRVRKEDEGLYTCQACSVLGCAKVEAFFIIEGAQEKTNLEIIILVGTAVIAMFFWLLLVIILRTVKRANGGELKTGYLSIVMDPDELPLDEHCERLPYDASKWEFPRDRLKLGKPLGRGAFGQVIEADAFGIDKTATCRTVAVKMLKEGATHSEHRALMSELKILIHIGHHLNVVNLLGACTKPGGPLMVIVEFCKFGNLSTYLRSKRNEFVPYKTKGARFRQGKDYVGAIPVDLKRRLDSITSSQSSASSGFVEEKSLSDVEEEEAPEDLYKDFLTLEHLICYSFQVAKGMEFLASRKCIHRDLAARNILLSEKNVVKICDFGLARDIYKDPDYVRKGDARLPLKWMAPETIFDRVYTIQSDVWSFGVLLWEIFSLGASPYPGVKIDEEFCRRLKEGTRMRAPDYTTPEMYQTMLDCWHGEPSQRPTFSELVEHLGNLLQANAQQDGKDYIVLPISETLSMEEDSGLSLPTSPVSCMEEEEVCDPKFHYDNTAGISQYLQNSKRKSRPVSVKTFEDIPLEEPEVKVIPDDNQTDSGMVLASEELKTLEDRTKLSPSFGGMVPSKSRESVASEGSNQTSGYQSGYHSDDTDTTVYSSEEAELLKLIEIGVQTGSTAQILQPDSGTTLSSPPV
T1 sequence (P09382 2-135 partner limits assumed): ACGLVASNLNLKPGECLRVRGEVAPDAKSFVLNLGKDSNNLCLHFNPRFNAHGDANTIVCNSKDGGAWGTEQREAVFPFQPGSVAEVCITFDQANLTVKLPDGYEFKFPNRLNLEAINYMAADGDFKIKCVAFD
T3 sequence (P09382 whole entry): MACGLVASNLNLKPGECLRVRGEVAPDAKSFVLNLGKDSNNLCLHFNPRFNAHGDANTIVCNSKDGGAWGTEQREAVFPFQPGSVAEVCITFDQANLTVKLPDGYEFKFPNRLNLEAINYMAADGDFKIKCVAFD
T5 sequence (P09382 whole entry): as above
T2 sequence (P09382 whole entry): as above
T4 sequence (P09382 2-135 limits assumed): as the sequence (P09382 2-135 partner limits assumed) above

In the case of rGal1: recombinant human galectin-1, the EC invasion result in the assay with HUVEC was “elicited”. Moreover, in the assay on mice (Matrigel plugs), the “vascularization of Matrigel sponges containing recombinant Gal1” value is given as “rapidly became vascularized”. In the assay with VEGFR2 [1], the “association with VEGFR2” value is “associated specifically”.

B1: anti-Gal1 monoclonal antibody 8F4F8G7 (antibody, V domains shown)
VH: EVQLQQSVAEFVRPGASVRLSCTASGFNIKNTYIHWVRQRPEQGLEWIGKIDPANGNTKYVPEFQGKATMTADTSSNTVYLHLSSLTSEDTAIYYCVDGYYGWYFAVWGTGTTVTVSS
VL: QAVVTQESALTTSPGETVTLTCRSSTGAVTTSNYANWVQEKPDHLFTGLIGATNNRAPGVPARFSGSLIGDKAVLTITGAQTEDEAIYFCALWYRNHFIFGSGTKVTVL
notes: Murine hybridoma mAb (deposit PTA-10535), lambda light chain; also called 14-19 8F4-F8-G7; clone 8F4.8F.67
With B1, the binding result (in assay [2]; in the assay with recombinant His-Gal1; in the assay with human galectin-1 (Gal1)) was “binds” throughout. Besides, the “reactivity with endogenous Gal1” value with endogenous Gal1 is listed as “specifically detected”. Besides, in the assay on VEGFR2 [3], the “VEGFR2 phosphorylation in response to Gal1” value is listed as “specifically inhibited”.
